Reference: patent US20250179210A1, “ANTI-CEACAM5 ANTIBODIES AND CONJUGATES AND USES THEREOF” (Merck Patent GmbH, priority 2022, published 2025)

T1: CEACAM5 in cancer cell line lysates (Homo sapiens, UniProt P06731)
T1 construct: endogenous in cells; host or cells: CEACAM5-positive and -negative cancer cell lines (RIPA lysates)
T1 sequence (P06731 35-685): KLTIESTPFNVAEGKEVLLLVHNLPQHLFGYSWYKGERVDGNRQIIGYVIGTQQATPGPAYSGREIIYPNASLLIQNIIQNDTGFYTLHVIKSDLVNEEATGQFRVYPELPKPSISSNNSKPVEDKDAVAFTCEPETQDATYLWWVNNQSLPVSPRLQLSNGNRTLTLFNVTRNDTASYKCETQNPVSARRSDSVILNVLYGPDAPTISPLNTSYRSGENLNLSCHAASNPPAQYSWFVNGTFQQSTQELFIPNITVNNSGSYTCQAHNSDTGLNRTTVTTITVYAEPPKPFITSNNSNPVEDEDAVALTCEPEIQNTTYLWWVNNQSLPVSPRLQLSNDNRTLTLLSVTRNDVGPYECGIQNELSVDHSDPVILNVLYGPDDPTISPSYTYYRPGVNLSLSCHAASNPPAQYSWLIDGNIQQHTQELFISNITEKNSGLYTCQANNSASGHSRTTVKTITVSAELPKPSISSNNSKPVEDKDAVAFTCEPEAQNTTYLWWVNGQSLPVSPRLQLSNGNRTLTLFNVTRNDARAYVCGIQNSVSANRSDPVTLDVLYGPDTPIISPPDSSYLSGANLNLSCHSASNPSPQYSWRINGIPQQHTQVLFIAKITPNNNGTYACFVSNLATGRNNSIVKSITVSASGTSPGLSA

T2: CEACAM-5 in FFPE cancer cell lines and human tumor tissues (Homo sapiens, UniProt P06731)
T2 construct: formaldehyde fixed paraffin embedded (FFPE) cancer cell line microarrays (CMAs) and human tumor tissues; from tissue; host or cells: FFPE cancer cell line microarrays and human tumor tissues
T2 sequence (P06731 35-676): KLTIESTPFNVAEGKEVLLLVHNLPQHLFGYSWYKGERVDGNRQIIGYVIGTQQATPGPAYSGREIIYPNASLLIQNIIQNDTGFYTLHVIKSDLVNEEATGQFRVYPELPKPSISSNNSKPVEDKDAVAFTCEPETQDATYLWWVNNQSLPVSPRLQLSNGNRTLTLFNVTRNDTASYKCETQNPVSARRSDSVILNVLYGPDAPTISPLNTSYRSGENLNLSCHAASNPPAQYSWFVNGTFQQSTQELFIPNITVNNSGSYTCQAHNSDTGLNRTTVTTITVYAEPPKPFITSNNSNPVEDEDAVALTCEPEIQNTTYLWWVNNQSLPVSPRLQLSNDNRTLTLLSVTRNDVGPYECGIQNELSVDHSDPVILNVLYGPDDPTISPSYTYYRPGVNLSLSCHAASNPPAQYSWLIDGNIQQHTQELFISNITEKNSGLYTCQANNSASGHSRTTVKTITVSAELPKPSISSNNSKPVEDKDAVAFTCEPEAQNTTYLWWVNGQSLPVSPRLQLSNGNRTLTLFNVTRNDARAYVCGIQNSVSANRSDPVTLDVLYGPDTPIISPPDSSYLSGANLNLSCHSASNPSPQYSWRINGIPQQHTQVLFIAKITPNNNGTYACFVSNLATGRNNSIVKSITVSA


Tests used:
[1] = molecular target: T1, CEACAM5 in cancer cell line lysates; assay: Western blot on cancer cell line lysates; assay type: binding; conditions: CEACAM5-positive and -negative cell line lysates
Method: Method used: Western blots were performed according to standard protocols (Sambrook, J. & Russell, D. W., 2001. Molecular Cloning: A Laboratory Manual, Volume 1, CSHL Press). For SDS-PAGE followed by membrane wet blotting, 15 μg total protein of RIPA cell lysates quantified by BCA kit (Thermo Scientific, #23227) were loaded per lane. Criterion XT 4-12% gels (Bio-Rad, #3450125) using MOPS running buffer (Bio-Rad #1610788) were used in a Criterion electrophoresis cell (Bio-Rad, #1656001). Transfer of proteins was confirmed by Ponceau staining. Membranes were washed before and in-between staining with 0.5 μg/mL to 1 μg/mL primary (mAb1 or rb8G4) and secondary antibodies (anti-human IgG, Jackson ImmunoResearch #109-035-098 or anti-rabbit IgG, CellSignaling #7074) was conducted. Stained membranes were visualized by ECL detection reagent using a Fusion FX imaging system (Vilber).

[2] = system: MDA-MB-468; assay: Flow cytometry binding to cell lines; parameters: species or system human; conditions: 10 μg/mL primary antibody
Method: (§1) Method used: 5E5 to 1E6 cells were used for flow cytometry analyses using a BD FACSCanto II (BD Biosciences) in 5 mL polystyrene tubes. Staining with 10 μg/mL primary antibodies (mAb1, rb8G4, mouse monoclonal Agilent Dako #M7072 clone #IL7) and respective fluorescently labeled secondary antibodies (donkey anti-human IgG Jackson-Dianova #709-116-149; donkey anti-mouse IgG Jackson ImmunoResearch #715-116-150, donkey anti-rabbit IgG Jackson-Dianova #711-116-152) were conducted in 50 μL 1% PBS/BSA for 20 to 30 min at 4° C. Between and after staining steps, cells were washed thrice with 1% PBS/BSA and resuspended in 500 μL 1% PBS/BSA (including 0.2 μg/mL DAPI for live cell gating) for flow cytometry analyses. For data evaluation, FlowJo software (BD Biosciences) was used.

[3] = system: A549; assay: Flow cytometry binding to cell lines; parameters: species or system human; conditions: 10 μg/mL primary antibody
Method: as §1

[4] = system: NCI-H441; assay: Flow cytometry binding to cell lines; parameters: species or system human; conditions: 10 μg/mL primary antibody
Method: as §1

[5] = system: MKN-45; assay: Flow cytometry binding to cell lines; parameters: species or system human; conditions: 10 μg/mL primary antibody
Method: as §1

[6] = molecular target: T2, CEACAM-5 in FFPE cancer cell lines and human tumor tissues; assay: Immunohistochemistry on FFPE cell lines and human tissues
Method: For the IHC staining with the anti-CEACAM-5 antibody rb8G4, sections of 4 μm from formaldehyde fixed paraffin embedded (FFPE) cancer cell line microarrays (CMAs) and human tumor tissues were mounted on charged slides (SuperFrost Ultra Plus, Thermo Fisher Scientific or TOMO, Matsunami). The staining procedure was performed using a Discovery XT (Roche Diagnostics) staining platform. Following deparaffinization, the sections were heated for epitope retrieval in Tris-EDTA buffer pH 8 (CC1, Roche Diagnostics). The sections were incubated with the primary monoclonal antibody rb8G4 diluted to 0.5 or 0.7 μg/ml in phosphate-buffered saline (PBS) or antibody diluent buffer (DCS). The clone DA1E (rabbit monoclonal IgG, NEB) served as isotype control antibody. The primary antibodies were followed by the HQ anti-rabbit IgG detection kit (Roche Diagnostics). […]
CMAs and the TMA with human organ tissue were stained and scanned with the NanoZoomer (Hamamatsu) with a resolution of 0.46 μm/pixel. […] The scans of the CMAs were analyzed with the image analysis software HALO (Indica Labs, USA). For the determination of the amount of antigen present, positive brown stained area was calculated as percent area of the viable tissue area. Staining (arbitrary units) is calculated as […]

[7] = molecular target: cynomolgus_monkey-CEACAM5; assay: Binding affinity on Octet Red (Fab format); conditions: biotinylated Macaca fascicularis CEACAM5_ECD-His captured, KD=kd/ka
Description: • To determine the binding affinity of soluble antibody analyte to captured target protein CEACAM5 (human or cynomolgus monkey Macaca fascicularis).

[8] = system: other human CEACAM family members (huCEACAM6, huCEACAM1, huCEACAM3, huCEACAM7, huCEACAM8, huPSG1); assay: Selectivity ELISA, different CEACAM proteins (Fab); assay type: binding; conditions: even when using 1000 nM Fab
Description: (§2) Selectivity determination for Fab of mAb1 to human CEACAM5 and other human CEACAM family members was done in ELISA assay. Proteins were coated on 96-well assay plates: huCEACAM5-His6 (R&D Systems #4128-CM), huCEACAM6-His6 (3934-CM R&D Systems and recombinant protein obtained from Syngene), huCEACAM1-His6 (2244-CM R&D Systems), huCEACAM3-His6 (C449 Novoprotein), huCEACAM7-His6 (C926 Novoprotein), huCEACAM8-His6 (C583 Novoprotein), huPSG1-His6 (CC66 Novoprotein), each protein was coating the plate at 12 nM concentration.

[9] = molecular target: BSA (Bos taurus, UniProt P02769); assay: Selectivity ELISA, unrelated protein (Fab); assay type: binding; conditions: all concentrations tested
Description: as §2

cynomolgus_monkey-CEACAM5, sequence (as listed by the source): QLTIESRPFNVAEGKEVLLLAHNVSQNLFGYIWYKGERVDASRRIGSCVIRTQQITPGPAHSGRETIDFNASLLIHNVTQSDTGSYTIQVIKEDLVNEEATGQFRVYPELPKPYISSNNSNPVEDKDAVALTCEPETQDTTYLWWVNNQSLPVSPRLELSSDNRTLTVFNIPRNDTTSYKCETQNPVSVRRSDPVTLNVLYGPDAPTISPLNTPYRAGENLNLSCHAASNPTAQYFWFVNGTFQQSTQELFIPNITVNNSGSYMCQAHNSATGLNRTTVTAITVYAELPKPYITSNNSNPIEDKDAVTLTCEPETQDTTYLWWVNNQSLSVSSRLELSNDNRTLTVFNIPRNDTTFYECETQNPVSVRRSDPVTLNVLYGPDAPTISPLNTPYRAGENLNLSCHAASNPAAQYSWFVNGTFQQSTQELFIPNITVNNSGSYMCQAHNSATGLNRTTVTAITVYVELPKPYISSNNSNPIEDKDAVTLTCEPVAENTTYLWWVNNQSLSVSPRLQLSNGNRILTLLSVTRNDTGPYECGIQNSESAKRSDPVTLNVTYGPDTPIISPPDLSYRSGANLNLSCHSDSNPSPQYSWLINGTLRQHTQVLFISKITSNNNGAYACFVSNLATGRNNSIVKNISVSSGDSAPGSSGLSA
BSA, sequence (P02769 25-607): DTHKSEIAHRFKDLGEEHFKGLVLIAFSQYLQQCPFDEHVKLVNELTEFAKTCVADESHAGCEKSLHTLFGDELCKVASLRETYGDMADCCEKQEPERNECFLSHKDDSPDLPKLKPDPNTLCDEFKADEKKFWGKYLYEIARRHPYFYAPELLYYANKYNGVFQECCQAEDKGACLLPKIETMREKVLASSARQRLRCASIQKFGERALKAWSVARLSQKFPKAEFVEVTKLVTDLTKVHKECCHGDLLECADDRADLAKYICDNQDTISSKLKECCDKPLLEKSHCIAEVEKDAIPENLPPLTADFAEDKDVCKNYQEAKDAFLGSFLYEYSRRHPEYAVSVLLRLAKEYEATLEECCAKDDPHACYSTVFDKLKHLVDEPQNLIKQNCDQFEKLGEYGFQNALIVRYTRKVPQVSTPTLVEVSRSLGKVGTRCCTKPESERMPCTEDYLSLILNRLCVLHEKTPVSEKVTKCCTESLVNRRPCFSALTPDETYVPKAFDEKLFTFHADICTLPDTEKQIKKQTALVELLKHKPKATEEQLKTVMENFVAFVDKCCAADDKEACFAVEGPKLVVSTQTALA

Molecule	CEACAM5 detection in Western blot [1]	Quotient of MFI of antibody divided by MFI of secondary antibody only control [2]	Quotient of MFI of antibody divided by MFI of secondary antibody only control [3]	Quotient of MFI of antibody divided by MFI of secondary antibody only control [4]	Quotient of MFI of antibody divided by MFI of secondary antibody only control [5]	Pearson correlation coefficient r of IHC staining signal with CEACAM5 mRNA expression ([6]; 104 cancer cell lines, CCLE dataset)	IHC staining of human tumor tissue ([6]; colorectal, gastric, esophageal and non-small cell lung cancer)	Kd [7] [nM]	Binding to the other human CEACAM family members [8]	Binding to unrelated protein (BSA) [9]
rb8G4 (antibody) heavy: EVQLQESGPGLVKPSQTLSLTCTVSDGSVSRGGYYLTWIRQHPGKGLEWIGYIYYSGSTYFNPSLRSRVTMSVDTSKNQFSLKLSSVTAADTAVYYCARGIAVAPFDYWGQGTLVTVSSQPKAPSVFPLAPCCGDTPSSTVTLGCLVKGYLPEPVTVTWNSGTLTNGVRTFPSVRQSSGLYSLSSVVSVTSSSQPVTCNVAHPATNTKVDKTVAPSTCSKPTCPPPELLGGPSVFIFPPKPKDTLMISRTPEVTCVVVDVSEDDPEVQFTWYINNEQVRTARPPLREQQFNSTIRVVSTLPIAHEDWLRGKEFKCKVHNKALPAPIEKTISKARGQPLEPKVYTMGPPREELSSRSVSLTCMINGFYPSDISVEWEKNGKAEDNYKTTPAVLDSDGSYFLYSKLSVPTSEWQRGDVFTCSVMHEALHNHYTQKSISRSPGK light: EIVLTQSPATLSVSPGERATLSCRTSQSVRSNLAWYQQKPGQAPRLLIYAASTRATGIPARFSGSGSGTEFTLTISSLQSEDFAVYYCQQYTNWPFTFGPGTKVDIKRDPVAPSVLLFPPSKEELTTGTATIVCVANKFYPSDITVTWKVDGTTQQSGIENSKTPQSPEDNTYSLSSTLSLTSAQYNSHSVYTCEVVQGSASPIVQSFNRGDC	specific to CEACAM5-positive cell lines	1.0	1.1	3.2	36.2	0.88	stained positive	–	–	–
Fab of mAb1: Fab format of antibody mAb1 (antibody, V domains shown) VH: EVQLQESGPGLVKPSQTLSLTCTVSDGSVSRGGYYLTWIRQHPGKGLEWIGYIYYSGSTYFNPSLRSRVTMSVDTSKNQFSLKLSSVTAADTAVYYCARGIAVAPFDYWGQGTLVTVSS VL: EIVLTQSPATLSVSPGERATLSCRTSQSVRSNLAWYQQKPGQAPRLLIYAASTRATGIPARFSGSGSGTEFTLTISSLQSEDFAVYYCQQYTNWPFTFGPGTKVDIK	–	–	–	–	–	–	–	14.1 ± 2.53	did not bind	did not bind
